One substance from paper PMC6158212 can be followed below.

This assay has as its target GP ectodomain of EBOV strain Mayinga-76 with a deleted mucin-like domain (EBOV GPΔMuc) (Zaire EBOV strain Mayinga-76). Briefly: crystal structure.

The term stoichiometry N denotes the number of molecules, sites or subunits per partner or assembly. For “GP ectodomain of EBOV strain Mayinga-76 with a deleted mucin-like domain (EBOV GPΔMuc) (complex)”, the stoichiometry N was 3.
